Experimental data published in patent US20170368119A1, “METHODS AND COMPOSITIONS FOR TREATING C-MET ASSOCIATED CANCERS” (YEASTERN BIOTECH CO., LTD, priority 2014, published 2017).

Tests used:
HCC329 [1] = experiment: HCC329 tumor development and metastasis in SCID mice model; assay type: in vivo; settings: JNJ 0.5-2.0 nmole/g mouse, intraperitoneal twice a week, 2 months
Protocol: HCC329 cells (approximately 2×10^7) suspended in 100 μl Dulbecco's Modified Eagle Medium (DMEM; Gibco, Grand Island, N.Y., USA) were directly injected into the subserosa of the middle liver lobe of the SCID mice, followed by intraperitoneal administration twice a week with DMEM as a vehicle, vehicle-containing FIP-gts (4.0-20 μg/g mouse) or JNJ (0.5-2.0 nmole/g mouse).
The mice were sacrificed 2 months after injection. Tumor mass was measured and the occurrence of intrahepatic metastasis and/or extrahepatic metastasis was recorded. Nodules with diameter of more than 0.1-0.2 cm observed on the left or right lobes were recognized as secondary tumor foci. […] Extra-hepatic metastasis was defined to be the case where the tumors appearing in organs other than liver such as in intestine. During the animal experiment, the regulations relevant to the care and use of laboratory animals were followed. This was approved by the Institutional Animal Care and Use Committee (IACUC) in Tzu Chi University (No. of consent form: 102080).

HCC329 [2] = experiment: wound healing migration assay, HCC329; assay type: cell-based, human
Protocol: The HCC cells were cultivated on 24-well plates accompanied with a wound healing culture insert until confluence followed by serum starvation of the cells for 24 hours and the culture insert were then removed. After appropriate treatments, pictures were taken under a phase contrast microscope at indicated times.
Cell numbers were counted, and the relative doubling times of the respective treated groups were determined by taking the data of the untreated group as 100%. […] Relative migration was analyzed quantitatively by taking the motility of untreated cells (Con) as 1.0.

HCC372 [3] = experiment: wound healing migration assay, HCC372; assay type: cell-based, human; settings: JNJ 26.5 nM, 48 hours
Protocol: The HCC cells were cultivated on 24-well plates accompanied with a wound healing culture insert until confluence followed by serum starvation of the cells for 24 hours and the culture insert were then removed. After appropriate treatments, pictures were taken under a phase contrast microscope at indicated times. Quantitative analysis of motility of the HCC cell lines described in Example 1 was performed by directly counting the cells migrating into the blanking area at 48 hours using Image J. Software available from the NIH website. In general, motilities of the mesenchymal HCCs were higher than those of the epithelial ones.
The most motile HCC cell lines identified in Example 2, namely HCC372 and HCC329, were employed for testing the molecular and cellular effects of FIP-gts on HCC, in comparison with those of JNJ-38877605 (abbreviated hereafter as JNJ), which is an ATP-competitive inhibitor for the catalytic activity of c-Met. In the cell proliferation assay, HCC329 and HCC372 cells were untreated or treated with FIP-gts (prepared in Example 4) at 0.5, 1.0 or 2.0 μg/ml for 72 hours. Cell numbers were counted, and the relative doubling times of the respective treated groups were determined by taking the data of the untreated group as 100%. […] Relative migration was analyzed quantitatively by taking the motility of untreated cells (Con) as 1.0. […]

[4] = test system: p-JNK, p-ERK, p-AKT, p-EGFR in HCC329; experiment: immuno-blotting of signaling molecules, HCC329; assay type: cell-based, human; settings: within 4 to 16 hours, data not shown
From the text: To investigate the molecular mechanism of FIP-gts in suppression of tumor progression of HCCs, the effects of FIP-gts on the activity and/or quantity of the critical members present in c-Met dependent signaling pathway, including c-Met, phosphorylated c-Met (p-c-Met) and downstream effectors p-JNK and p-ERK, were examined in HCCs. […] Total proteins were harvested from the cells and subjected to immuno-blotting analysis using GAPDH as a loading control. Antibodies for p-c-Met, p-JNK, p-ERK and p-paxillin (S178), GAPDH and ERK were purchased from Santa Cruz Biotechnology (California, USA). The band intensities on the blots were quantified with Image J. Software. Relative band intensity of each molecule was calculated, taking the data of untreated HCC372 or HCC329 as 1.0.

HCC372 [5] = experiment: transwell migration assay, HCC372; assay type: cell-based, human; settings: FIP-fve 10 μg/ml, 48 hours
Protocol: (§1) Further, the effects of the three FIPs on migration of both HCC cells were examined. HCC372 and HCC329 cells were seeded on a 24-well transwell migration insert (Nalge Nunc International Corp., Rochester, N.Y., USA) in a complete medium for 24 hours. After treatment with FIP-gmi (3 μg/ml), FIP-fve (10 μg/ml) and FIP-vvo (2.5 μg/ml) for 48 hours, cells that had migrated to the underside of the insert membrane were stained with 0.3% crystal violet. The cells on the topside of the insert membrane were rubbed with a cotton swab. The migrated cells on the underside were imaged using phase contrast microscopy with 200× magnification.

[6] = test system: c-Met, p-c-Met and p-JNK in HCC372; experiment: western blotting of c-Met dependent signaling (Example 10), HCC372; assay type: cell-based, human; settings: HCC372 (HGFR-positive)
Protocol: To investigate the molecular mechanism of FIP-gts in suppression of tumor progression of HCCs, the effects of FIP-gts on the activity and/or quantity of the critical members present in c-Met dependent signaling pathway, including c-Met, phosphorylated c-Met (p-c-Met) and downstream effectors p-JNK and p-ERK, were examined in HCCs. HCC329 and HCC372 cells were treated with FIP-gts (2 μg/ml) for 4 or 24 hours. Total proteins were harvested from the cells and subjected to immuno-blotting analysis using GAPDH as a loading control. Antibodies for p-c-Met, p-JNK, p-ERK and p-paxillin (S178), GAPDH and ERK were purchased from Santa Cruz Biotechnology (California, USA). The band intensities on the blots were quantified with Image J. Software. Relative band intensity of each molecule was calculated, taking the data of untreated HCC372 or HCC329 as 1.0. The results were shown in FIGS. 5A and 5B, in which (**) (##) and (*) (#) represent statistical significance (p<0.005 and p<0.05, respectively, n=3) between the indicated inhibitor-treated sample and untreated HCC329 or HCC372 control group.
The experiments described in Example 7 were repeated, except that FIP-gts was replaced with FIP-gmi, FIP-fve and FIP-vvo for treating HCC329 and HCC372. […] In addition, since c-Met was not substantially expressed in HCC329, the inhibitory effects of FIP-gmi, FIP-fve and FIP-vvo on HCC329 must be exerted through blockage on a c-Met independent signaling, such as EGFR-dependent signaling pathway.

HCC329 [7] = experiment: transwell migration assay, HCC329; assay type: cell-based, human; settings: FIP-fve 10 μg/ml, 48 hours
Protocol: as §1

HCC372 [8] = experiment: MTT cell viability, HCC372; assay type: cell-based, human; settings: 48 hours
Protocol: (§2) HCC372 and HCC329 cell lines established in Example 2 were cultured in 24-well plates at 1×10^5 cells/well in Dulbecco's Modified Eagle Medium (DMEM; Sigma, St. Louis, Mo., USA) supplemented with 1% heat-inactivated fetal bovine serum (FBS; Gibco, N.Y., USA) in the presence or absence of FIP-gmi, FIP-fve and FIP-vvo prepared in Example 4 at 1, 2.5 and 5 μg/ml for 48 hours. The supernatant was removed and 25 μl per well of 2.5 mg/ml MTT (3-[4,5-dimethylthiazol-2-yl]-2,5-dipheyltetrazolium bromide; Sigma Chemical Co., St. Louis, Mo., USA) in phosphate-buffered saline (PBS) was added. The plates were incubated at 37° C. for 1 hour to allow the transformation of MTT into water-insoluble formazan crystals. Then, the supernatant was removed and dimethyl sulfoxide (DMSO) was added to all wells and mixed thoroughly to dissolve the dark blue crystals. After a few minutes at room temperature to ensure that all crystals were totally dissolved, the plates were read at 570 nm. Relative survival rate was calculated by taking the number of untreated cells (Con) as 100%. The results are shown in FIGS. 6A and 6B, where the data were representative of 4 reproducible experiments.

HCC329 [9] = experiment: MTT cell viability, HCC329; assay type: cell-based, human; settings: 48 hours
Protocol: as §2

Row | Molecule | secondary tumors on liver lobes (intra-hepatic metastasis) (HCC329 [1]) | tumor progression of HCC329 (HCC329 [1]) | suppression of cell migration (HCC329 [2]; JNJ, 48 hours) [%] | suppression of cell migration (HCC372 [3]) [%] | suppression of cell migration by EGFR inhibitors (HCC329 [2]; wound healing assays, data not shown) [%] | reduction of the level of p-JNK by EGFR inhibitors [4] [%] | suppression of cell migration (transwell) (HCC372 [5]) | effect on c-Met [6] | effect on p-JNK [6] | effect on p-c-Met [6] | suppression of cell migration (transwell) (HCC329 [7]) | suppression of growth (MTT) (HCC372 [8]; 2.5 μg/ml) [%] | suppression of growth (MTT) (HCC372 [8]; 5 μg/ml) [%] | suppression of growth (MTT) (HCC329 [9]; 2.5 μg/ml) [%] | suppression of growth (MTT) (HCC329 [9]; 5 μg/ml) [%]
1 | Cn1cc(-c2ccc3nnc(C(F)(F)c4ccc5ncccc5c4)n3n2)cn1 [JNJ-38877605, reference compound] | secondary tumors were observed on left and right liver lobes | not prominent | 15 | 50 | – | – | – | – | – | – | – | – | – | – | –
2 | Cc1cc(C)c(/C=C2\C(=O)Nc3ccccc32)[nH]1 [SU5416, reference compound] | – | – | – | – | 80 | 30 | – | – | – | – | – | – | – | – | –
3 | FIP-fve: fungal immunomodulatory protein from Flammulina veltipes, SEQ ID NO: 2 (protein, Flammulina Velutipes) SATSLTFQLAYLVKKIDFDYTPNWGRGTPSSYIDNLTFPKVLTDKKYSYRVVVNGSDLGVESNFAVTPSGGQTINFLQYNKGYGVADTKTIQVFVVIPDTGNSEEYIIAEWKKT | – | – | – | – | – | – | marginally suppressed | significantly suppressed | significantly suppressed | significantly suppressed | marginally suppressed | 13 | 13 | 18 | 22
4 | FIP-vvo: fungal immunomodulatory protein from Volvariella volvacea, SEQ ID NO: 3 (protein, listed as Volvariella volvacea) STDLTQLLFFIAYNLQKVNFDYTPQWQRGNPSSYIDAVVFPRVLTNKAYQYRVVTGDKDLGIKPSYSVQADGSQKVNLLEYNGGYGVADTTTIKIYVVDPSNGNQYLIAQWK | – | – | – | – | – | – | – | significantly suppressed | significantly suppressed | significantly suppressed | – | 48 | 96 | 54 | 95
5 | FIP-gmi: fungal immunomodulatory protein from Ganoderma microsporum, SEQ ID NO: 6 (protein, listed as Ganoderma microsporum) MSDTALIFTLAWNVKQLAFDYTPNWGRGRPSSFIDTVTFPTVLTDKAYTYRVVVSGKDLGVRPSYAVESDGSQKINFLEYNSGYGIADTNTIQVYVIDPDTGNNFIVAQWN | – | – | – | – | – | – | – | significantly suppressed | significantly suppressed | significantly suppressed | – | 23 | 96 | 23 | 94
